Literature values, collected in PMC8567204.
Like-named read-outs stand apart in the source and are kept apart here. Values belong to the substance of their own block, whether it stands above or below them.

Legend:
[1] = molecular target: Fyn (unfolded) SH3 (UniProt P06241)
[2] = molecular target: Fyn (native) SH3 (UniProt P06241)
[3] = molecular target: Trigger factor (Escherichia coli) (UniProt P0A850)
[4] = molecular target: HscA (Escherichia coli) (UniProt P0A6Z1)
[5] = molecular target: HscA (Escherichia coli) (UniProt P0A6Z1); remark: listed apart in the source
[6] = molecular target: HscB (Escherichia coli) (UniProt P0A6L9)
Chain of HscB (Escherichia coli) (P0A6L9 whole entry): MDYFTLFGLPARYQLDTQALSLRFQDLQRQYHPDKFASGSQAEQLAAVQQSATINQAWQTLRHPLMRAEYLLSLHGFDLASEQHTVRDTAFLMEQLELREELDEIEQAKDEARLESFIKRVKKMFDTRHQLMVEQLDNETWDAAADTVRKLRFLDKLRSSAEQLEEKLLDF

Chain of apo-IscU (P0ACD4 whole entry): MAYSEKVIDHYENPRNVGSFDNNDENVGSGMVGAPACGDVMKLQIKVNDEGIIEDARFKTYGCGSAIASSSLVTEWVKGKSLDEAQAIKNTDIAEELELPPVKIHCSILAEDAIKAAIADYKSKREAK
Chain of Spy (P77754 24-161): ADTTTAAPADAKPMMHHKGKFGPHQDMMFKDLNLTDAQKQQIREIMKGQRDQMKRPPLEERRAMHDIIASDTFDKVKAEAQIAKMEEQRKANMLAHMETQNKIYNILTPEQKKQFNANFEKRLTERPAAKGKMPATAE
Chain of HscA (Escherichia coli) (P0A6Z1 whole entry): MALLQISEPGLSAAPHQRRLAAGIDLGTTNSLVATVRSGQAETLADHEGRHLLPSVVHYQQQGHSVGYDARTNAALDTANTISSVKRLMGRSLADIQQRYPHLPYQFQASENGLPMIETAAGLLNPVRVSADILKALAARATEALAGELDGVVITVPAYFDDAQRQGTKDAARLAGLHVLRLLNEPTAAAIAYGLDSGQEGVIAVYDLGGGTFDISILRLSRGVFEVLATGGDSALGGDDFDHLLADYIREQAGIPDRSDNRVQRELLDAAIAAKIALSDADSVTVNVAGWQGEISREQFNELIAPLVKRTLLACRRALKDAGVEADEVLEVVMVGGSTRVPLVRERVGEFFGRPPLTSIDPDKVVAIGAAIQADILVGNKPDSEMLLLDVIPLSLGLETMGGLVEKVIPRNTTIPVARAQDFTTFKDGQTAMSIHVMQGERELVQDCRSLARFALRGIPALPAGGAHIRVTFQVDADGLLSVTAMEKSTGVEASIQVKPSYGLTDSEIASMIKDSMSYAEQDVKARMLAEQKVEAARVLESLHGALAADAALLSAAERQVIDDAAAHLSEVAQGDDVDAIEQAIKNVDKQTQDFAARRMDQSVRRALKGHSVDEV
Chain of Trigger factor (P0A850 whole entry): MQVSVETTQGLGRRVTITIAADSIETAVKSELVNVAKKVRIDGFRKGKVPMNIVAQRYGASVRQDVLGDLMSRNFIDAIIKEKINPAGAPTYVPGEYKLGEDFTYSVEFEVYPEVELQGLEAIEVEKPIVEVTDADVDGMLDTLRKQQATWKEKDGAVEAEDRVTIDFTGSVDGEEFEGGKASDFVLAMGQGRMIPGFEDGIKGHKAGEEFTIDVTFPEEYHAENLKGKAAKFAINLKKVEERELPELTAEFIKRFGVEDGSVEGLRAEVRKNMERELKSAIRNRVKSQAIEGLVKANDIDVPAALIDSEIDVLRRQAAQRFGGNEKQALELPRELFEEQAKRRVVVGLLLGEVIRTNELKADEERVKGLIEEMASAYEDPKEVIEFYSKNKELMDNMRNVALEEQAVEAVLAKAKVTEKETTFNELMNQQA
Chain of Fyn (unfolded) SH3 (P06241 82-143): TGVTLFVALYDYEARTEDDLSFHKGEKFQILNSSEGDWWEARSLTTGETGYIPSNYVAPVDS
Chain of Fyn (native) SH3 (P06241 82-143): as above

Kd [1]: 3 µM | Kd [2]: 50 µM
Substance: Spy (from UniProt P77754)

Substance: Trigger factor (from UniProt P0A850)
Kd [3]: 2 µM

Substance: apo-IscU (from UniProt P0ACD4)
Kd [4]: 9 µM | Kd [5]: 37 µM | Kd [6]: 11 µM
